Data on one variant can be found in IntAct's records for PubMed 11454208.

Sequences and labels used below:
B1: Transcriptional repressor OPI1 (Saccharomyces cerevisiae), P21957 (parent)
chain: MSENQRLGLSEEEVEAAEVLGVLKQSCRQKSQPSEDVSQADKMPASESSTTPLNILDRVSNKIISNVVTFYDEINTNKRPLKSIGRLLDDDDDEHDDYDYNDDEFFTNKRQKLSRAIAKGKDNLKEYKLNMSIESKKRLVTCLHLLKLANKQLSDKISCLQDLVEKEQVHPLHKQDGNARTTTGAGEDETSSDEDDDDEEFFDASEQVNASEQSIVVKMEVVGTVKKVYSLISKFTANSLPEPARSQVRESLLNLPTNWFDSVHSTSLPHHASFHYANCEEQKVEQQQQQQQQQQQQQLLQQQLLQQQQQKRNKDGDDSASPSSSVTANGKVLILAKESLEMVRNVMGVVDSTLGKAEEWVKQKQEVKEMIRERFLQQQQQYRQQQQKDGNYVKPSQDNVDSKD
partner: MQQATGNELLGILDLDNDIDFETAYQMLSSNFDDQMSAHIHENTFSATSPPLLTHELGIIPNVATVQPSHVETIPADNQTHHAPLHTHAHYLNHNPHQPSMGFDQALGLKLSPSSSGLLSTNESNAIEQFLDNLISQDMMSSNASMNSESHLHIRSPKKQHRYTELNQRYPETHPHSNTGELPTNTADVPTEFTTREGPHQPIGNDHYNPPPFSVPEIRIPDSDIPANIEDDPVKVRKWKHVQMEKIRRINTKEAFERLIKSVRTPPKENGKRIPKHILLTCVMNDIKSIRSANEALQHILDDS

In this assay the parent is B1. The conditions noted are these: with ino2_yeast INO2, P26798.
As for L160A, the “effect of a mutation on the interaction” value is “decreasing interaction”.
